In experiment [1] the target is Rhesus-D antigen (human) (UniProt Q02161). Kind of experiment: phage bound to Rh-D positive red blood cells, eluted with citric acid, titred on ampicillin plates; titre prior to selection 1.0 × 10^8.
Experiment [2] has as its target bovine thyroglobulin (Sigma) (bovine) (UniProt P01267). Put plainly: phage ELISA, 200 µg/ml thyroglobulin coating. (ELISA stands for enzyme-linked immunosorbent assay.)
The target in experiment [3] is T1, turkey egg-white lysozyme (turkey, UniProt P00703 19-147).
T1 construct: also called turkey egg lysozyme; turkey lysozyme
T1 sequence (P00703 19-147 limits assumed): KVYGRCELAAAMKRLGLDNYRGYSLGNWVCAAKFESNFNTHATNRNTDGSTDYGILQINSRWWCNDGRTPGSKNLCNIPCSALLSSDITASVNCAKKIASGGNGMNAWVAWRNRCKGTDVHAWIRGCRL
Kind of experiment: heading of the table of deduced sequences.

Rhesus-D antigen (human), sequence (Q02161 2-417): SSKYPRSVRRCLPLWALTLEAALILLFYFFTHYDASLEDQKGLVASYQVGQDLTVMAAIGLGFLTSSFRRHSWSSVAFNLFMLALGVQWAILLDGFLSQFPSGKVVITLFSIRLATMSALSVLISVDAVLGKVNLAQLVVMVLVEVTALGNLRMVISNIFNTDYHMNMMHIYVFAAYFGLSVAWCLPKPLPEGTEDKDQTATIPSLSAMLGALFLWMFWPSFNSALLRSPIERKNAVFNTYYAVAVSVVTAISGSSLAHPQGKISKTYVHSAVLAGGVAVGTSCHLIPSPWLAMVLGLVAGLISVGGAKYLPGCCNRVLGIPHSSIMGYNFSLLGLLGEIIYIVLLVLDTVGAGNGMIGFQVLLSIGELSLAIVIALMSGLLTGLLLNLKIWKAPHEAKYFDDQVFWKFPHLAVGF
bovine thyroglobulin (Sigma) (bovine), sequence (P01267 20-2769 limits assumed): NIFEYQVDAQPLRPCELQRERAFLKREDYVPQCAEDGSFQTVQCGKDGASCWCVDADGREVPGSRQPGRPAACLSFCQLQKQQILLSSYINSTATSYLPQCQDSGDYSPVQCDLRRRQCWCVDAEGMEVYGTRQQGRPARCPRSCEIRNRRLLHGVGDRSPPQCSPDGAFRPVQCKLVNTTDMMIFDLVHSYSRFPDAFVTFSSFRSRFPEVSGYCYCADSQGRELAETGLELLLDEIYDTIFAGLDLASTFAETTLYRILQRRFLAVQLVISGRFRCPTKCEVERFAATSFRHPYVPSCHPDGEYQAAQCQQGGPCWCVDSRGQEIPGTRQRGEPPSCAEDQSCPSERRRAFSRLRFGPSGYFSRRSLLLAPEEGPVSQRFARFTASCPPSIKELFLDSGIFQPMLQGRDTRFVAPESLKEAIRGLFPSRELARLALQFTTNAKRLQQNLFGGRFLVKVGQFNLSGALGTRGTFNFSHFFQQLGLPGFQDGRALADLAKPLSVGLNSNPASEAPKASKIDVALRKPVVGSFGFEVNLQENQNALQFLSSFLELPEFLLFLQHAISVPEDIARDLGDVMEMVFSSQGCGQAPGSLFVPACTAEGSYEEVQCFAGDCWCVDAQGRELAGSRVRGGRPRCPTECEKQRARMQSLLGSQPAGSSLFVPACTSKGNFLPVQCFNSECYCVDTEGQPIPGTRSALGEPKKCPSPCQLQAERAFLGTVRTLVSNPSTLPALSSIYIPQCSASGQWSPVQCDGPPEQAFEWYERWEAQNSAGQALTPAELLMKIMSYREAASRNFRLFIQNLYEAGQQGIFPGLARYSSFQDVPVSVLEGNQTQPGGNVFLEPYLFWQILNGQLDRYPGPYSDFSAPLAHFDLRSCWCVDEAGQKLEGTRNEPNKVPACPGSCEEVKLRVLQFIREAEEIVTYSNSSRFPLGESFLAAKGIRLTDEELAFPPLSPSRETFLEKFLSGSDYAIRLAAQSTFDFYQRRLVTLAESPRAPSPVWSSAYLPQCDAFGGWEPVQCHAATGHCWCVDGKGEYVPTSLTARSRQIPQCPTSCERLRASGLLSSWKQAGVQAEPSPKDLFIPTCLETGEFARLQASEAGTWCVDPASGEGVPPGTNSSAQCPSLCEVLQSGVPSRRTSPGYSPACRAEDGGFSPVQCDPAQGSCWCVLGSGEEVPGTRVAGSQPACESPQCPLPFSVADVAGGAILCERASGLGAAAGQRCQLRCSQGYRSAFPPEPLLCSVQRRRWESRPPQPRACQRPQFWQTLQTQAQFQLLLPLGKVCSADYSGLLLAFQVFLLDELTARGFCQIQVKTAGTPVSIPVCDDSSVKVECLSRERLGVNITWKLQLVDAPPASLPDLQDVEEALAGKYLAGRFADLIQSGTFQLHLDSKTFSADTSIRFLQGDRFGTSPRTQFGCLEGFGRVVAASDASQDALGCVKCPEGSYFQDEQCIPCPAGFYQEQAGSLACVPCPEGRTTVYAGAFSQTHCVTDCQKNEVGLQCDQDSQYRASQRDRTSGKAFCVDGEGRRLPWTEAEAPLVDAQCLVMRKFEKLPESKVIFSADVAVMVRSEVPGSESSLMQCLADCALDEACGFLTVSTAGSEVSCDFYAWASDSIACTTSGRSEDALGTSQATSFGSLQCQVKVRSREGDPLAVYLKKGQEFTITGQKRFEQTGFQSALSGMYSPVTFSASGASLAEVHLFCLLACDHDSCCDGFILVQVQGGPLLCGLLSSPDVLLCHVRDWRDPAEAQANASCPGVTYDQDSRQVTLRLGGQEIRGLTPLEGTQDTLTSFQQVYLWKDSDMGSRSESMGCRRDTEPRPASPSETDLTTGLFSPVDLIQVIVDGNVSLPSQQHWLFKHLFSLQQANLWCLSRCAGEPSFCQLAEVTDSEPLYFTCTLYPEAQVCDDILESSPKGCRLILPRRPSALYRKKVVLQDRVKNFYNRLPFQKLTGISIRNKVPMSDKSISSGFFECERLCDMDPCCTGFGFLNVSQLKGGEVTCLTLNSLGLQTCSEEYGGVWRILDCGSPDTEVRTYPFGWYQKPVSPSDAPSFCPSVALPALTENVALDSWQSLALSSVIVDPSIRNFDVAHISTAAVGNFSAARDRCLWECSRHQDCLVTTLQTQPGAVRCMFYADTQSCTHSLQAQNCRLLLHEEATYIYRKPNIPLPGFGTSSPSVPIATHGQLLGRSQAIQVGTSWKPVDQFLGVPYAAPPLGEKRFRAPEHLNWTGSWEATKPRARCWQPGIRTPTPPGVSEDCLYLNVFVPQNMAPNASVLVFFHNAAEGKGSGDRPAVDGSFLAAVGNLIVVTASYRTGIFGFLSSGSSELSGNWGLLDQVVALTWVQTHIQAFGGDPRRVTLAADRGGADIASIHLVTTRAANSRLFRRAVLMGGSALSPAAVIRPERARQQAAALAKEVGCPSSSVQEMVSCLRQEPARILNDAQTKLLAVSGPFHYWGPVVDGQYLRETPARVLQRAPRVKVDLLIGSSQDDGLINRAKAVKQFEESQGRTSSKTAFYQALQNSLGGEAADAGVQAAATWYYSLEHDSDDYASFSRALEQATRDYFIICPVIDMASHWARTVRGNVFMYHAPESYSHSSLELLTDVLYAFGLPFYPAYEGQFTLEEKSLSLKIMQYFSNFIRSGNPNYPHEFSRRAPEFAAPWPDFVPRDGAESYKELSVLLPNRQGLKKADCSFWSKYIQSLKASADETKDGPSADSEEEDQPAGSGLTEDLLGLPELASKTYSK

Turning to “Fog-B Fab fragment displayed on the surface of phage (pHEN1)”, the titre of phage eluted after selection on Rh-D positive cells in experiment [1] is 6e+06. For the molecule “phage control (vector pCAT3) (from UniProt P03661 19-424)”, the ELISA OD in experiment [2] was determined as 0.07 O.D.

B1: Lysozyme binder VH14.1 / VL14.1 (scFv, V domains shown)
VH: QVQLQESGPGLVKPSETLSLVCTVSGGSLSFSYWGWIRQPPGKGLEWIGYISHRGTDYNSSLQSRVTISADTSKNQFSLKLSSVTAADTAVYYCARSFSNSFFFGYWGQGT
VL: SSELTQDPAVSVAFGQTVRITCQGDSLRSSYASWYQQKPGQAPLLVIYGENSRPSGIPDRFSGSSSGNTASLTITGAQAEDEADYYCNSRDSRGTHLEVFGG
notes: Human scFv in pHEN1 on phage; Paired by common number
With B1, the binding result in experiment [3] is “binds”.

The record behind these values is patent US6806079.
